The values below come from patent US20220064322A1 (JACOBIO PHARMACEUTICALS, published 2022).

For assay [1], the target named is T1, cynomolgus CD73 on the cell surface (293T/17-cynoCD73 cells) (cynomolgus (Macaca fascicularis), UniProt P21589 27-547 (human entry)).
T1 chain: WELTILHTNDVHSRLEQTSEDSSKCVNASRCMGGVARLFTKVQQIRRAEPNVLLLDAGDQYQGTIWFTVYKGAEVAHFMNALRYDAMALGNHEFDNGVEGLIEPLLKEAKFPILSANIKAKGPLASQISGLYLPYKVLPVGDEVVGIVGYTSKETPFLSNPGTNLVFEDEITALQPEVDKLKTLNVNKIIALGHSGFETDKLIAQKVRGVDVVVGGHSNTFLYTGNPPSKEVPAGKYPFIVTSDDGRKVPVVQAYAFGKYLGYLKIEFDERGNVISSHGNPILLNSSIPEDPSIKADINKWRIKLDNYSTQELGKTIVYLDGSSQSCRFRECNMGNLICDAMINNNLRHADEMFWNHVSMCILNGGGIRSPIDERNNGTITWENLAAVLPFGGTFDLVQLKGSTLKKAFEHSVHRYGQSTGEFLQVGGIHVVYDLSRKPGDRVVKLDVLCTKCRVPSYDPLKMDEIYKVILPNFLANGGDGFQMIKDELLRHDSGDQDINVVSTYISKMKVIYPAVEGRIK
The assay is described as follows: cell-based or functional assay.

In assay [2] the target is T1, cynomolgus CD73 on the cell surface …. The assay is described as follows: flow cytometry on 293T/17-Cyno CD73 cells. As to the method: (§1) 2×10⁶ cells resuspended in PBS buffer were distributed into 96-well plates and incubated with gradient diluted humanized antibodies for 1 h at refrigerator 4° C. or on ice, then the cells was centrifuged for 3 min 1500 rpm at 4° C. and washed three times by PBS, and diluted APC-labeled goat anti-human polyclonal antibody (Biolegend) were incubated for 30 min at refrigerator 4° C. Finally, the cells were washed three times with PBS as described above and analyzed on MACSQuant flow cytometer. GraphPad Prism software was used to generate data graphs and statistical affinity data.
(§2) The samples to be tested were incubated for 1 h at 4° C. after gradient dilution. After washing, 100 μL of APC-labeled secondary antibody was added to each well and incubated for 30 min. After washing, detecting on machine and the fluorescence value was read. GraphPad Prism software was used to generate data graphs and statistical affinity data.
(In general: A flow cytometer gives signals particle by particle.)

Assay [3] addresses T2, human CD73 ecto-domain recombinant protein (huCD73) (human, UniProt P21589 27-547).
T2 construct: also called soluble huCD73; soluble recombinant CD73
T2 sequence: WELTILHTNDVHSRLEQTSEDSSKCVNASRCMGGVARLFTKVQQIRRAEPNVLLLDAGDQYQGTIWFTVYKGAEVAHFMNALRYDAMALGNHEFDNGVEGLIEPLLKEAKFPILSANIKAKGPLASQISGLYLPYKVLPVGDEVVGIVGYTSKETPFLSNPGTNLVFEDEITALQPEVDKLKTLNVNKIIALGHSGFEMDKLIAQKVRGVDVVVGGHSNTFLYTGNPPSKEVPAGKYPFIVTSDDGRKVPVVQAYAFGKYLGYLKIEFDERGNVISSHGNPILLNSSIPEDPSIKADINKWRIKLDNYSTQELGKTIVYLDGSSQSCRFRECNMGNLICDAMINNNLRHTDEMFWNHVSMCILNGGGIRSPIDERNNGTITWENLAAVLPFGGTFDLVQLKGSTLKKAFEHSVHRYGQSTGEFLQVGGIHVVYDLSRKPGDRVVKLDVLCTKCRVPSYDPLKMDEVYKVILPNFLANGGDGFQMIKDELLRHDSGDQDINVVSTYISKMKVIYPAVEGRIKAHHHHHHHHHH
The assay can be described thus: indirect ELISA, coated huCD73 recombinant protein. As to the method: (§3) Incubated with gradient diluted 100 μL/well of antibodies for 1 h at room temperature. After the plates were washed 3 times with 200 ul/well of PBST, 100 ul of diluted HRP-labeled secondary antibody at a ratio of 1:5000 was added to each well, and the plates were incubated for 1 hour at room temperature. The plates were washed 3 times with 200 ul/well of PBST, 100 ul of TMB was added to each well and reacted for 5 minutes at room temperature in the dark. […] read the OD value. The affinity of humanized antibodies and parent antibodies were similar to the antigen (table 9).
Background: An ELISA detects its analyte on a solid surface through an enzyme-linked reagent.

Assay [4] addresses T1, cynomolgus CD73 on the cell surface …. The assay is described as follows: flow cytometry on 293T/17-Cyno CD73 cells, curve fit. As to the method: as §1, §2
The target in assay [5] is T2, human CD73 ecto-domain recombinant …. The assay can be described thus: indirect ELISA, coated huCD73 recombinant protein, curve fit. The method, then: as §3
Assay [6] has as its target T1, cynomolgus CD73 on the cell surface …. The assay is described as follows: flow cytometry on 293T/17 cells expressing cynoCD73, APC-labelled goat anti-human antibody, MFI. As to the method: as §1, §2
The target of assay [7] is T2, human CD73 ecto-domain recombinant …. The assay can be described thus: indirect ELISA, plate coated with 1 ug/ml huCD73 recombinant protein, HRP-labelled secondary antibody, RFU. As to the method:
as §3

For assay [8] the target is unchanged. The assay can be described thus: cell-based or functional assay.
The target in assay [9] is T1, cynomolgus CD73 on the cell surface …. The assay is described as follows: cell-based or functional assay.
Assay [10] deals with T2, human CD73 ecto-domain recombinant …. The assay is described as follows: indirect ELISA, coated soluble huCD73. The method, then:
(§4) The indirect ELISA method was applied to evaluate the binding ability of each positive clone to soluble huCD73 protein. Soluble huCD73 was coated, and gradient diluted samples were incubated, then HPR-labeled secondary antibody was added, finally TMB was added to develop the color, and OD450 was read after termination.
(§5) 1 ug/ml of recombinant CD73 protein was coated on ELISA plates (Coning), incubate overnight at 4° C. The next day, wash 5 times in PBS and blocked with 200 ul/well 2% skimmed milk, a certain dose range of CD73 antibodies were incubated for 1 h at room temperature. Wash 5 times with PBST washing buffer (PBS, 0.05% Tween 20), add HRP-conjugated goat anti-mouse IgG (H+L) (Promega) and incubate at room temperature for 1 h to detect bound anti-CD73 antibodies; wash the plate 5 times again and add TMB (Life Technologies) for color development for 5 to 10 min; finally the reaction was stopped by adding 1N HCl, and the OD value was measured at 450 nm. GraphPad Prism software was used to generate data graphs and statistical affinity data.

Assay [11] has the same target. The assay can be described thus: indirect ELISA, coated soluble huCD73, curve fit. The method, then: as §4, §5
Assay [12] has the same target. The assay is described as follows: indirect ELISA, coated soluble huCD73, HRP-labelled secondary antibody, OD450. The method, then: as §4, §5

Read-outs that look alike come from different tables or passages of the source.

B1: JB24H2L1 (antibody, human IgG1, kappa, V domains shown)
VH: QVQLVQSGAEVKKPGASVKMSCKASGYTFTDYNMHWVRQSPGKSLEWIGYIKPHNAGTTYNPKFEGRATLTVDTSASTAYMELSSLRSEDTAVYYCVRSDFLYWYFDVWGQGTTVTVSS
VL: DIQMTQSPSSLSASVGDRVTITCTASSSVSSSYLHWYQQKPGKAPKLLIYSTSNLASGVPSRFSGSGSGTDFTLTISSLQPEDFATYYCHQYHRSPLTFGAGTKLEIKR
notes: Humanized antibody of JB24Chi, human IgG1 / kappa
By EC50 is commonly meant the midpoint of the concentration-response curve. Usually EC50 (read off the curve) stands for the concentration at which the effect is half-maximal. Consider B1, for which the “IC50, blockade of 5'exonuclease activity on 293T/17-Cyno CD73 cells” value (“IC50, blockade of 5'exonuclease activity” for short) in assay [1] was determined as 0.079 nM. Further, the concentration for a half-maximal effect (EC50) stood at 1.89 nM in assay [2] and 0.0248 nM in assay [3]. In addition, the values for the Bottom in assay [4] and in assay [5] were 1.4 fluorescence and 191 OD value, respectively. The figures for the Top in assay [4] and in [5] were 36.5 fluorescence and 6290 OD value, respectively. Moreover, the “EC50 (read off the curve)” value is roughly 2 nM in assay [6] and roughly 0.2 µg/mL in [7].

B2: JB94H1L3 (antibody, human IgG1, kappa)
heavy: not shown
light: DIQMTQSPSSLSASVGDRVTITCKASQDINTYLSWFQQKPGKSPKSLIYRSNILVDGVPSRFSGSGSGQDYTLTISSLQPEDFAIYYCLQYDDFPYTFGQGTKLEIKRTVAAPSVFIFPPSDEQLKSGTASVVCLLNNFYPREAKVQWKVDNALQSGNSQESVTEQDSKDSTYSLSSTLTLSKADYEKHKVYACEVTHQGLSSPVTKSFNRGEC
notes: Humanized antibody of the 94 clone, human IgG1 / kappa
Take B2: in assay [1], the “IC50, blockade of 5'exonuclease activity” value turned out to be 0.017 nM. The EC50 in [2] was determined as 5.42 nM; in assay [3], 0.0289 nM. The values for the Bottom in [4] and in [5] were 1.51 fluorescence and 48.7 OD value, respectively. Moreover, the Top was 78.7 fluorescence in [4] and 8290 OD value in assay [5]. Also, the “EC50 (read off the curve)” value was roughly 5 nM in assay [6] and roughly 0.03 µg/mL in assay [7].

B3: JB24Chi (antibody, human IgG1, kappa, V domains shown)
VH: QVQLQQSGLELVKPGASVKMSCKASGYTFTDYNMHWVKQSHGKSLEWIGYIKPHNGGTTYNPKFEGKATLTVNKSSSTAYMELRSLTSEDSAVYYCVRCDFLYWYFDVWGTGTTVTVSS
VL: DIVMTQSPAIMSASLGERVTMTCTASSSVSSSYLHWYQQKPGSSPKLWIYSTSNLASGVPGRFSGSGSGTSYSLTISSMEAEDAATYYCHQYHRSPLTFGAGTKLEMKR
notes: Phage antibody, chimeric human IgG1 / human kappa full chains
Turning to B3, in [8], the “Bottom (lower plateau of the fitted curve), blockade of soluble huCD73 enzyme activity (AMP hydrolysis, luciferase/CellTiter-Glo)” value is 14.7. Also, the “IC50, blockade of soluble huCD73 enzyme activity (AMP hydrolysis, luciferase/CellTiter-Glo)” value in assay [8] turned out to be 0.401 nM. Besides, in [8], the “Top (upper plateau of the fitted curve), blockade of soluble huCD73 enzyme activity (AMP hydrolysis, luciferase/CellTiter-Glo)” value was determined as 102. For the same molecule, the “IC50, blockade of 5'exonuclease activity” value is 0.084 nM in [9] and 0.005 nM in [1]. Further, the values for the EC50 in [10], in assay [2] and in [3] were 0.039 nM, 6.38 nM and 0.0273 nM, respectively. Further, the Bottom in [11] came to 0.136 OD450; in assay [4], 0.709 fluorescence; in assay [5], 128 OD value. Further, the Top in assay [11] came to 3.09 OD450; in assay [4] it was 68.5 fluorescence; in [5] it was 6600 OD value. For the same molecule, the “EC50 (read off the curve)” value in assay [12] was roughly 0.04 nM; in assay [7] it was roughly 0.1 µg/mL.
